Experimental data: the nanobody polyreactivity screen of Harvey et al. (2022)

Experiment: yeast display, Sf9 membrane polyspecificity reagent, FACS + sequencing; frameworks hold sequencing errors
Procedure, shortened: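 Sorting gates, low and high (top ~1%), were placed on anti-HA fluorescence to track expression and on streptavidin fluorescence to track reagent binding. A clone's polyreactivity label is taken from the gate it came out of. The reagent was 10% biotinylated, detergent-solubilized Sf9 membrane, applied for 1 hour at 4 °C to galactose-induced yeast display cells.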

| Sequence | polyreactivity (PSR sort gate) |
| --- | --- |
| QVQLVESGGGLVQAGGSLRLSCAASGNIFKYYTMGWYRQAPGKERELVAAITSGGRTNYADSVKGRFTISRDNAKNTVYLQMNSLKPEDTAVYYCAAYDVIYSQGFDYWGQGTQVTVSS | low polyreactivity |
| QVQLVESGGGLVQAGGSLRLSCAASGNIFLKNAMGWYRQAPGKERELVAAISKRGGSTYYAYSVKGRFTISRDNAKNTVYLQMNSLKPEDTAVYYCAAVLTKVWRGPEMDYWGQGTQVTVSS | high polyreactivity |
| QVQLVESGGGLVQAGGSLRLSCAASGNIFLTYAMGWYRQAPGKERELVAAISRGGRTYYADSVKGRFTISRDNAKNTVYLQMNRLKPEDTAVYYCNVQPDRISRYDYWGQGTQVTVSS | high polyreactivity |
| QVQLVESGGGLVQAGGSLRLSCAASGNIFLYYAMGWYRKAPGKERELVADIDSSGASTYYADSVKGRFTISRDNAKNTVYLQMNSLKPEDTAVYYCPAEFHWWYAGYDYGYWGLGTQVTVSS | low polyreactivity |
| QVQLVESGGGLVQAGGSLRLSCAASGNIFLYYAMRWYRQAPGKERELVADIDSSGASTYYADSVKVRFTISRDNAKNTVYLQMNSLKPEDTAVYYCAAEFHWWYAGYDYGYWGQGTKVTVSS | low polyreactivity |
| QVQLVESGGGLVQAGGSLRLSCAASGNIFNYNAMGWYRQATGNERELVAAISFSGGSTYYADSVKARFTISRDNAQNTVYLQMNSLKPEDTAVYYCAKAERNYFEYWGQGTQVTVSS | high polyreactivity |
| QVQLVESGGGLVQAGGSLRLSCAASGNIFPSYAMGWYRQAPGKERELVASINFSDGYTSYADSVKGRFTISRDNAKNTVYLQMNSLKPEDTAVYNCNADVWYYYYGFKGEEDYWGQGTQVTVSS | low polyreactivity |
| QVQLVESGGGLVQAGGSLRLSCAASGNIFRGYTMGWSRQAPGKEREWVATISWNGVSTFYADSVKGRFTISRDNAKNTVYVQMNSLKPEDTAVYYCAAYYPSHDYSGFWSDTYEYWGQGTQVTVSS | low polyreactivity |
| QVQLVESGGGLVQAGGSLRLSCAASGNIFRKYAMGWYRQAPGKERELVATISYSGGSTYYADSVKGRFTISRDNAKNTVYLQMNSLKPEDTAVYYCNAVKDLDSSFDYWGQGTQVTVSS | low polyreactivity |
| QVQLVESGGGLVQAGGSLRLSCAASGNIFRRYTLGWSRQAPGKERELVAAISSGGSTNYADSVKGRFTLSRDNAKNTVYLQMNSLKPEDTAVYYCAATRRYIQYGYDYWGQGTQVTVSS | high polyreactivity |
| QVQLVESGGGLVQAGGSLRLSCAASGNIFRSYMGWYRQAPGKEREFVAGITWRGGNTYYADSVKGRFTISRDNAKNTVYLQMNSLKPEDTAVYYCAAEIFVYYRWYDYWGQGTQVTVSS | high polyreactivity |
| QVQLVESGGGLVQAGGSLRLSCAASGNIFRVYDMGWYRQAPGKERELVATITSGGRTYYADSVKGRFTISRDNAKNTVYLQMNSLKPEDTAVYYCNVDVKGRPTFWSPFGRFDYWGQGTQVTVSS | high polyreactivity |
| QVQLVESGGGLVQAGGSLRLSCAASGNIFRYNAMGWYRQAPGKERELVAAISRGGSTKYADSVKGRFTISRDNAKNTVYLQMNSLKPEDTAVFYCARVKSTGSTFASPYDYWGQGTQVTVSS | high polyreactivity |
| QVQLVESGGGLVQAGGSLRLSCAASGNIFRYNARGWYRKAPGKERELVAAISSVGTTNSADSVKGRFTSSRDNAKNTFYLQMNSLKPEDTAVYYCNAAWSSYLSGGYESWGQGTQVTVSS | low polyreactivity |
| QVQLVESGGGLVQAGGSLRLSCAASGNIFSKYVRGWYRQARGKERELVAAITYSGGSTYYADSVKGRFTISRDNSKNTVYLQMNSLKPEDTGVYYCNAVRRRSSLKLDSWGQGTQVTVSS | high polyreactivity |
| QVQLVESGGGLVQAGGSLRLSCAASGNIFSRNAMGWYRQAPGKERELVASIRWSGGSTYADSVKGRFTISRDNAKNTVYLQMNSLKPEDTAVYYCAADSLHGRKFRGVDYWGQGTEVTVSS | low polyreactivity |
| QVQLVESGGGLVQAGGSLRLSCAASGNIFSRYAMGWYRQAPGKERELVAAISSSGGTTYYADSVKGRFTISRDNAKNTVYLHMNSLKPEDTAVYYCNARRRQIYSEFGYWGQGTQVTVSS | high polyreactivity |
| QVQLVESGGGLVQAGGSLRLSCAASGNIFSVYAMGWYRKAPGKERELVAAISSSGGRTYYADSVKGRFTISRDNEKNTVYLHMNSLKPEDTAVYYCAARSYTGQFVYWGQGTQVTVSS | high polyreactivity |
| QVQLVESGGGLVQAGGSLRLSCAASGNIFSWYAMGWYRQAPGKERELVAAITSGGRTYYADSVKGRFTISRDNAKNTVYLQMNSLKPEDTAVYYCNALRRRQYHDDYWGQGTQVTVSS | high polyreactivity |
| QVQLVESGGGLVQAGGSLRLSCAASGNIFSYYAMGWYRQAPGKERELVAAIRSSGVGTRYADSVKGRFTISRDNAKNTVYLQINSLKPEDTAVYYCAATGYTGYSRYYYWGQGTQVTVSS | high polyreactivity |
| QVQLVESGGGLVQAGGSLRLSCAASGNIFSYYAMGWYRQAPGKETELVAAIRSSGVGTRYADSVKGRFTISRDNAKNTVYVQMNSLKPEDTAVYYCAATGYTGYSRYYYWGQGTQVTVSS | high polyreactivity |
| QVQLVESGGGLVQAGGSLRLSCAASGNIFTGYMGWYRQAPRKERELVAAISRSGGRTHYADSVKGRFTISRDNAKNTVYLQMNSLKPEDTAVYYCNADVRRYTAFTKYPYAFNYWGQGTQVTVSS | high polyreactivity |

| Sequence | polyreactivity (PSR sort gate) |
| --- | --- |
| QVQLVESGGGLVQAGGSLRLSCAASGNIFTQYGMGWYRQAPGKERELVAAISRRGGSTYYADSVKGRFTISRDNAKNTVYLQMNSLNPEDTAVYYCARRTNRPPWGFEYWGQGTQVTVSS | high polyreactivity |
| QVQLVESGGGLVQAGGSLRLSCAASGNIFVVNAMGWYRQAPGIERELVAAITVSGGSTYYADSVKGRFTISRDNAKNTVYLQMNRLKPEDTAVYYCNAYYWHDNWDIELGKFDYWGQGTQVTVSS | low polyreactivity |
| QVQLVESGGGLVQAGGSLRLSCAASGNIFWSNAMGWYRQAPGKERELVAGITSSTGSTYYADSVKGRFTISRDNAKNTVYLQMNSLKPEDTAVYSCAARYRYYPVTTRGYYWGQGTQVTVSS | high polyreactivity |
| QVQLVESGGGLVQAGGSLRLSCAASGNIIDANAMGWYRQAPGKERELVAAITSSGGSTYYADSVKGRFTISRDNANNTVYLQMNSLKPEDTAVYYCAKSHAIYYWWDESWGHGTQVTVSS | low polyreactivity |
| QVQLVESGGGLVQAGGSLRLSCAASGNIIVFYAMGWYRQAPGKEREFVAAITSGGSTNYADSVKGRFTISRDNAKNTVYLQMNSLKPEDTAVYYCAGRQWFSHRRWGGSRYDYWGQGTQVTVSS | high polyreactivity |
| QVQLVESGGGLVQAGGSLRLSCAASGNIIWGNAMGWYRQAPGKERELVAAISRRSGSTYYADSVKGRFTISRDNAKNTVYLQMNSLKPEDTAVYYCNTAGRVGTYDYWGQGTQVTVSS | high polyreactivity |
| QVQLVESGGGLVQAGGSLRLSCAASGNILARGYAMGWYRQAPGKERELVAAITFNDGSTYYADSVKGRFTISRDNAKNTVYLQMNSLKPEDTAVYYCAADFSYVYYLYDYWGQGTQVTVSS | low polyreactivity |
| QVQLVESGGGLVQAGGSLRLSCAASGNILASNAMGWYRQAPGKERELVAAITISGDTTYYADSVKGRFTISRDNAKNTVYLQMNSLKPEDTAVYYCNAVSFIVNGGYDGDYWGQGTQVTVSS | low polyreactivity |
| QVQLVESGGGLVQAGGSLRLSCAASGNILGYNAMGWYRQAPGKERELVAAISWIGGSTYYADSVKGRFTISRDNAKNTVYLQMNSLKPEDTAVYYCAARRVIYYPAFYYDYYYWGQGTQVTVSS | low polyreactivity |
| QVQLVESGGGLVQAGGSLRLSCAASGNILGYNAMGWYRQAPGKERELVAAISWIGGSTYYADSVKGRFTISRDNAKNTVYLQMNSLKPEDTAVYYCAARYRTYFTYEFWGQGTQVTVSS | low polyreactivity |
| QVQLVESGGGLVQAGGSLRLSCAASGNILPSNAMGRYREAPGKEWELVAAITWSVGRTYYADSVKGRFTISRDNAKYTVYLQMNSLKPEDTAVYYCAADDYWDDVYYYVTGSTGYDYWGQGTQVTVSS | low polyreactivity |
| QVQLVESGGGLVQAGGSLRLSCAASGNILWFNAMGWYRQAPGKERELVASITSSGGRTYYADSVKGRFTISRDNAKNTVYLQMNSLKPEETAVYYCAAEYYYGWTYSGGLGFLGYNYWGQGTQVTVSS | low polyreactivity |
| QVQLVESGGGLVQAGGSLRLSCAASGNIRYYAMGWYRQAPGKERELVAAITRRSGNTYYADSVKGRFTISRDNAKNTVYLQMNSLKPEDTAVYYCAVVLYTYLTPYYEMDYWGQGTQVTVSS | high polyreactivity |
| QVQLVESGGGLVQAGGSLRLSCAASGNNFETNAMGWYRQAPGKERELVAAISASGGSTYYADSVKGRFTISRDYAKNTVYLQMNSLKPEDTAVYYCAARRAVRLYYWGQGTQVTVSS | high polyreactivity |
| QVQLVESGGGLVQAGGSLRLSCAASGNNFSAYAMGWYRQAPGKERELVATITSGGRTYYADSVKGRFTISRDNAKNTVYLQMNSLKPEDTAVYYCAADGPYYSPYYYWGQGTQVTVSS | low polyreactivity |
| QVQLVESGGGLVQAGGSLRLSCAASGNNLRYYAMGWYRQAPGKERELVAAITSSGGSTYYADSVKGRFTISRDNAKNTVYLKMNSLKPEDTAVYYCAAVFSYSRYNYWGQGTQVTVSS | high polyreactivity |
| QVQLVESGGGLVQAGGSLRLSCAASGNTFAGNAMGWYRLAPGKERELVAAISYSGGSTYYADSVKGRFTISRDNAKNNVYLQMNSLKPEDTAVYYCNAPQPGNGRTRSRYYYWGQGTQVTVSS | high polyreactivity |
| QVQLVESGGGLVQAGGSLRLSCAASGNTFDFYAMGWYRQAPGKEREFVAAISNGGSTTYADSVKGRFTISRDNAKNTVYLQMNSLKPEDTAVYYCAADPRNAEYDDASMDYWGQGTQVTVSS | high polyreactivity |
| QVQLVESGGGLVQAGGSLRLSCAASGNTFDIYAMGWYRQAPGKERELVAAISSSGGSTYYADSVKGRFTISRDNAKNTVYLQMNSLKPEDTAVYYFNARHRQWARGYWGQGTQVTVSS | high polyreactivity |
| QVQLVESGGGLVQAGGSLRLSCAASGNTFDVYAMGWYRQAPGKEREFVARISGRVGSTYYADSVKGRFTISRDNAKNTVYLQMNSLKPEDTAVYYCAARGRVKYVYGGFGYWGQGTQVTVSS | high polyreactivity |
| QVQLVESGGGLVQAGGSLRLSCAASGNTFEDYAMGWYRQAPGKERELVAAINSGGSTNYADSVKGRFTISRDNAKNTVYLQMNSLKPEDTAVYYCAAEPGEGFDYWGQGTQVTVSS | low polyreactivity |
